From PMC3477848 (Biochemistry, 2012) come the findings set out here.

The data set “cross-linking” concerns the molecule itself. The data set is described as follows: cross-linking.
Data set [1] deals with T1, Dpo4 (SsoDpo4, Y-family DNA polymerase) (Sulfolobus solfataricus, UniProt Q97W02 1-352).
T1 sequence: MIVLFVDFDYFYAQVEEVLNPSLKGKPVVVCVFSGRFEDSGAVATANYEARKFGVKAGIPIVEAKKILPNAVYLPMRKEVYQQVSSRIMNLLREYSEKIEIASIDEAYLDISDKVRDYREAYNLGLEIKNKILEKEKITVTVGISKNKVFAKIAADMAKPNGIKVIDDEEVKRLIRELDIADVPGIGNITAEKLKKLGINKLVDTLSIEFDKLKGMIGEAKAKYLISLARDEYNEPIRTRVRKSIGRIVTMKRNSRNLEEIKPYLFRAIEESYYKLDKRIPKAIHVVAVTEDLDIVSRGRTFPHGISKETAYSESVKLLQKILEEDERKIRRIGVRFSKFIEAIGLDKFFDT
The data set is described as follows: ITC.

Data set [2] has as its target T1, Dpo4 (SsoDpo4, Y-family DNA polymerase). The experiment in a line: ITC. This is another data set of the same source.

Where two headings read alike, the source gives them in different places.

B1: Dpo4, wild-type untagged, Y-family lesion bypass (repair) DNA polymerase of Sulfolobus solfataricus (enzyme)
chain: MIVLFVDFDYFYAQVEEVLNPSLKGKPVVVCVFSGRFEDSGAVATANYEARKFGVKAGIPIVEAKKILPNAVYLPMRKEVYQQVSSRIMNLLREYSEKIEIASIDEAYLDISDKVRDYREAYNLGLEIKNKILEKEKITVTVGISKNKVFAKIAADMAKPNGIKVIDDEEVKRLIRELDIADVPGIGNITAEKLKKLGINKLVDTLSIEFDKLKGMIGEAKAKYLISLARDEYNEPIRTRVRKSIGRIVTMKRNSRNLEEIKPYLFRAIEESYYKLDKRIPKAIHVVAVTEDLDIVSRGRTFPHGISKETAYSESVKLLQKILEEDERKIRRIGVRFSKFIEAIGLDKFFDT
As to B1, the “stoichiometry N” value in the data set “cross-linking” stood at 2. Turning to TTTTTTTTTTCCCGGGCCGGCGTTTCGCCGGCCCGGG (structured_DNA) [37-nt hairpin primer-template, unlabeled], the Ka amounted to 652000 M⁻¹ in data set [1] and 2.23e+06 M⁻¹ in data set [2].
